Values joined by “and” are separate entries in the source; they are usually repeats but may differ in a detail not shown here. Equal values may be shown once.
Settings: Bos taurus, 25 °C, CD, Ammonium acetate 0.1 M, reversible: yes, whole UniProt chain shown

B1: Oxytocin-neurophysin 1 wild type, P01175 (protein)
chain: MAGSSLACCLLGLLALTSACYIQNCPLGGKRAVLDLDVRTCLPCGPGGKGRCFGPSICCGDELGCFVGTAEALRCQEENYLPSPCQSGQKPCGSGGRCAAAGICCSPDGCHEDPACDPEAAFSQH
denaturant m value (pH 6, GdnHCl): 1.6 kcal/mol/M and 1.1 kcal/mol/M | unfolding free energy (pH 6, GdnHCl): 28.5 kJ/mol and 13 kJ/mol | denaturant m value (pH 8, GdnHCl): 1.5 kcal/mol/M and 1.1 kcal/mol/M | unfolding free energy (pH 8, GdnHCl): 20.5 kJ/mol and 12.6 kJ/mol | denaturant m value (pH 8, Urea): 0.7 kcal/mol/M and 0.4 kcal/mol/M | unfolding free energy (pH 8, Urea): 18.4 kJ/mol and 10 kJ/mol | denaturant m value (pH 10, GdnHCl): 0.9 kcal/mol/M and 1 kcal/mol/M | unfolding free energy (pH 10, GdnHCl): 11.3 kJ/mol and 10.9 kJ/mol

— FireProtDB (doi:10.1021/bi9912950)
